According to publication PMC3742746, “A Novel TetR Family Transcriptional Regulator, SAV576, Negatively Controls Avermectin Biosynthesis in Streptomyces avermitilis”:

T1: His6-SAV576 (TetR family regulator) (Streptomyces avermitilis ATCC31267, UniProt Q82QD4 1-218)
T1 sequence: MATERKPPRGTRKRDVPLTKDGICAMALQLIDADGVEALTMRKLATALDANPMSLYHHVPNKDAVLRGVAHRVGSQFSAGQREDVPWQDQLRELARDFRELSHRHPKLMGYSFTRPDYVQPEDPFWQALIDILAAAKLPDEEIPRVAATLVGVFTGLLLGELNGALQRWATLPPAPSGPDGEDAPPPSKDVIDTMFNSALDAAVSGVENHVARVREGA


What follows are binders tested against T1, His6-SAV576 (TetR family regulator) (assay: EMSA; EMSA: Roche DIG Gel Shift Kit binding buffer (composition not stated), 0.3 nM probe, 1 µg poly[d(I-C)] in 20 µl, 25°C 30 min, 5% PAGE 0.5x TBE; footprinting: 400 ng DNA in 50 µl, 25°C 30 min, DNase I at 37°C). Details: protein: recombinant; tags: His6 (pET-28a); chain copies: 2; label: 3' DIG; blunt.

Binder | binding result
probe 1m (dsDNA) DNA 1: TGAAGCGAATTCGAAGCTTGAAACGGGGCGCTGCCGTACCGGC DNA 2: GCCGGTACGGCAGCGCCCCGTTTCAAGCTTCGAATTCGCTTCA | no binding
probe 6 (dsDNA) DNA 1: AGTCGCCATACGCTGTACGGTACCAGCGCCCGCGGCACTGCGG DNA 2: CCGCAGTGCCGCGGGCGCTGGTACCGTACAGCGTATGGCGACT | binds
probe 2 (dsDNA) DNA 1: CCCAGGTCTGCCGATTGAGTTTCCATACGTCGTATGGTACTAC DNA 2: GTAGTACCATACGACGTATGGAAACTCAATCGGCAGACCTGGG | binds
probe 6m (dsDNA) DNA 1: AGTCGCGAATTCCAAGCTTGTACCAGCGCCCGCGGCACTGCGG DNA 2: CCGCAGTGCCGCGGGCGCTGGTACAAGCTTGGAATTCGCGACT | no binding
probe 2m (dsDNA) DNA 1: CCCAGGTCTGCCGATTGAGTTTCGAATTCTAAGCTTGTACTAC DNA 2: GTAGTACAAGCTTAGAATTCGAAACTCAATCGGCAGACCTGGG | no binding
